From US20040214256

T1: Compound 1s, Ac-Ile-Ile-PyA-pNF-Asn-Thr-Pro-Glu-His-Val-Val-Pro-Tyr-Gly-Leu-Gly-Ser-COOH
T1 sequence: IIXXNTPEHVVPYGLGS

T2: Compound 2s, Ac-Arg-Pro-Lys-Pro-Gln-Gln-PyA-pNF-Gly-Leu-Met-NH2
T2 sequence: RPKPQQXXGLM

T3: peptide 3s, Ac-Ser-Gly-PyA-Lys-Ala-Phe-Ala-pNF-Gly-Lys NH2
T3 sequence: SGXKAFAXGK

T4: Compound 1s, Ac-Ile-Ile-PyA-pNF-Asn-Thr-Pro-Glu-His-Val-Val-Pro-Tyr-Gly-Leu-Gly-Ser-COOH
T4 chain: IIXXNTPEHVVPYGLGS

T5: peptide 3s, Ac-Ser-Gly-PyA-Lys-Ala-Phe-Ala-pNF-Gly-Lys NH2
T5 chain: SGXKAFAXGK


What was measured:
[1] = test system: T1, Compound 1s, Ac-Ile-Ile-PyA-pNF-Asn-Thr-Pro-Glu-His-Val-Val-Pro-Tyr-Gly-Leu-Gly-Ser-COOH
[2] = test system: T2, Compound 2s, Ac-Arg-Pro-Lys-Pro-Gln-Gln-PyA-pNF-Gly-Leu-Met-NH2
[3] = test system: T3, peptide 3s, Ac-Ser-Gly-PyA-Lys-Ala-Phe-Ala-pNF-Gly-Lys NH2
[4] = biological target: T4, Compound 1s, …
[5] = biological target: T5, peptide 3s, …

Molecule | cleavage by HPLC after 2 h at 37° C. [1] | cleavage by HPLC after 2 h at 37° C. [2] | cleavage by HPLC after 2 h at 37° C. [3] | Km (fluorimetric cleavage assay, ENZFITTER) [4] | cleavage products by HPLC [4] | cleavage products by HPLC [5]
angiotensin-converting enzyme (ACE) | no cleavage is observed by HPLC after incubation for 2 h at 37 °C | no cleavage is observed by HPLC after incubation for 2 h at 37 °C | no cleavage is observed by HPLC after incubation for 2 h at 37 °C | – | – | –
neprilysin (NEP) | no cleavage is observed by HPLC after incubation for 2 h at 37 °C | no cleavage is observed by HPLC after incubation for 2 h at 37 °C | no cleavage is observed by HPLC after incubation for 2 h at 37 °C | – | – | –
endothelin-converting enzyme (ECE) (protein) MMSTYKRATLDEEDLVDSLSEGDAYPNGLQVNFHSPRSGQRCWAARTQVEKRLVVLVVLLAAGLVACLAALGIQYQTRSPSVCLSEACVSVTSSILSSMDPTVDPCHDFFSYACGGWIKANPVPDGHSRWGTFSNLWEHNQAIIKHLLENSTASVSEAERKAQVYYRACMNETRIEELRAKPLMELIERLGGWNITGPWAKDNFQDTLQVVTAHYRTSPFFSVYVSADSKNSNSNVIQVDQSGLGLPSRDYYLNKTENEKVLTGYLNYMVQLGKLLGGGDEEAIRPQMQQILDFETALANITIPQEKRRDEELIYHKVTAAELQTLAPAINWLPFLNTIFYPVEINESEPIVVYDKEYLEQISTLINTTDRCLLNNYMIWNLVRKTSSFLDQRFQDADEKFMEVMYGTKKTCLPRWKFCVSDTENNLGFALGPMFVKATFAEDSKSIATEIILEIKKAFEESLSTLKWMDEETRKSAKEKADAIYNMIGYPNFIMDPKELDKVFNDYTAVPDLYFENAMRFFNFSWRVTADQLRKAPNRDQWSMTPPMVNAYYSPTKNEIVFPAGILQAPFYTRSSPKALNFGGIGVVVGHELTHAFDDQGREYDKDGNLRPWWKNSSVEAFKRQTECMVEQYSNYSVNGEPVNGRHTLGENIADNGGLKAAYRAYQNWVKKNGAEHSLPTLGLTNNQLFFLGFAQVWCSVRTPESSHEGLITDPHSPSRFRVIGSLSNSKEFSEHFRCPPGSPMNPPHKCEVW | – | – | – | 1s, Km=22.1±0.9 µM | In all cases, a single cleavage site at the L.PyA-Lp.NF dipeptide was observed, generating only two metabolites | produce only two metabolites, as shown by analysis of the reaction by HPLC, corresponding to the single cleavage at the PyA-pNF peptide bond
